Results reported in the supplement of paper PMC9170038.

System: K4 kissing-loop RNA reporter
Assay: apparent KD of K4 kissing-loop reporter; higher = weaker reporter binding
Conditions: Eterna round: R107
Experimental: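 RNA-MaP round R107: designed RNA switches with theophylline, tryptophan, arginine or FMN aptamers are transcribed on-chip within common flanks. They are titrated with a labelled K4 kissing-loop RNA reporter in RNA-MaP buffer (100 mM Tris pH 7.5, 80 mM KCl, 4 mM MgCl2), without ligand or with the indicated ligand. Median apparent KD per design.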

[1] = input ligand: theophylline 20 uM
[2] = input ligand: tryptophan 2.4 mM
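Note: bound reporter read as fluorescence of individual clusters on recovered sequencing chips by microscopy, with normalized cluster intensities fitted with a binding model.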

Sequence	apparent KD of K4 kissing-loop reporter (input ligand: FMN 200 uM) [nM]	apparent KD of K4 kissing-loop reporter (input ligand: arginine 13.2 mM) [nM]	apparent KD of K4 kissing-loop reporter (input ligand: none) [nM]	apparent KD of K4 kissing-loop reporter [1] [nM]	apparent KD of K4 kissing-loop reporter [2] [nM]
AACUGUCAAGGAACUUGCAACAAAGGUGAUACCAGCAUCGAAAGAUGCCCUUGGCAGCACCAACUUGCAGUGAUGUUGCAAGUAA [(T)'-(H)'-(T1)-(T2)-(H1)-(H2)_Design7]	300	243	322	402	286
GGAUAGGACAGAGGAUAUGGUAGUGAUGUUACCAAACUGGUUACUCUUGUCAGAAAACUGGCAUUUCCAGAAGGCUGUCCUAUCG [KL-XFMN-B11]	599	75.1	92.2	84.9	104
GUCCAAACACAGUGAUGUUGUGAAUAUGAAGGAGCGGACGAAAGUCCAGGUAGGUCGCAUAAAGGACACCUACGAAAAGUAGGAA [#SwitchBubble 5 #K4Early]	172	201	228	222	159
GUCCCAGUGAUGUUGGUAGGCGAGCGGGAUACCAGCCAAGACUCAGGCCCUUGGCAGCCCACAUAUCCCACGUAGGGAUUAGCUC [Same State - Theophylline A (Freestyle 19)]	212	198	223	256	173
CCGUCGACAAGCGCCAUCGUCUACGUCAAUAAGGAUAUCAUCAAGGUGAGAAGGUAUGACAACCGGAGUGAUGUUCCAGGGCGAA [theeternabot_sameState_KL_FMN_A_5]	506	362	368	304	346
CUUGGAAAGACGGCCGCCACUGGCCAGUGAUGUUGGCCCACCAGGUAAGCCAAGAAGCUUGACGUCAGGACCGGGUCCUAGGAAU [Exclusion TRyptophan B GF 23]	363	449	410	314	359
CAUAGUCACUGUGAUACCAGCCCGACUCUUGGCGUCUGCGGUCAAAGCCCAGUGAUGUUGGGCCCUUGGCAGCAUGGCGGCAACA [Xelexebi]	136	114	132	112	120
ACUGAAAGAUCUGAUACCAGACUUUUUGUAUUUAUUAAAACUAGUGAUGUUAGUUUAUCAGUCCCUUGGCAGCAGUUACUACAGA [JR_Nu_ExcTheophyB_Sub024]	91	106	105	103	95.4
GUGCGCGCGGCGGCCGCCACUCGCAUGAGAGUGAUGUUCUCGGGACUGACGCAAGUCAGUCAUGUGAGGACCGGGCCGGGCUGCG [#2 Same State - Tryptophan B Attempt #12 (HarryS)]	1060	1640	447	769	423
CGCAAGCAGCCAGUGAUGUUGGCCGCCUUGCGAGGACCGGUACGGCCGCCACUCGAAGGCGGCUACUGGUAAUCCGUCUAACGGA [Lareus]	84.6	80.9	86.8	68.4	89.9
CGCGCGCGCGCGCGCGCGCGCGAAAAUGAUACCAGUAUAUAAGAAUACCCUUGGCAGCAUAAGAAAGAUAUAGUGAUGUUGUAUA [SSTheophA.A]	212	76.5	279	316	161
CGUGAUGUAUGGCGGUUUGUCACUUAGGAUCAGGAUAUAUAAACAAAUAGAAGGGAUGGCGGAGUGAUGUUCCGCCGGCCGCCAU [FMN A Exl V8]	173	128	161	150	148
UAGGAGUGAUGUUCCUUUAGCAGGUAGGAAGGAGCGCCCAUUUGGGCAGGUAGGUCGCCUACUGGCCCUGAGUUAAACCUUAGGC [#11 K4 Arginine A Same State]	149	181	150	207	127
CUGGGUUGACGAAAAGUCAACAAAAGAGAAGGAGCGCACGAAAGUGCAGGUAGGUCGCUCAUCCAGUGAUGUUGGAUCAUCCAGA [#SwitchBubble 16 #K4Late]	345	611	316	646	273
AAAUUCUUUUUUUUAUAUAACAAUUCAGAAGGAGCGUGGUAGAACACAGGUAGGUCGCUGAAUAUAAGACUAGUGAUGUUAGUAA [JR_SSArginiA_Sub010]	153	192	203	214	153
GGUAGCAUGGCGGCCGCCACUCGCUAGUGAUGUUAGCGGGAUGAGACAAAGGACAUAACUUUAUCGAGGACCGGGCCAUGCUACC	88.2	66.5	75.8	62.2	92.9
UUCUACGAGUGAUGUUCGUAGUGUAUUCGCUAGGAUAUCGUUUUUUCGAGAAGGAGUGAUGAAGUGAUACGAAAGUAUCGCUUCU [FMN A 14]	223	241	352	411	292
UGAUAGGACAGAAGGAGCGGAAUGCUGUCCAAAAGGACAGCAAAUAUAACAGGAGUGAUGUUCCAGGUAGGUCGCUGUCCUAUCU [ArgBX 21 #SwitchBubble #StaticStem]	246	197	214	199	187
AGUACAAUGGCGGCCGCCACUCAAUGGCAGAUCAAAGAUCUGUAUCACUCAGUGAUGUUGAGUGAGAGGACCGGGCCUUUGUACA [Omei KL Tryp B SS B v9]	604	477	500	514	187
GUUUGGCGGACGGCCGCCACUCGGACGAGUCACAGUGAUGUUGUGGUUUGCCAGUCGACUUCAUCGAGGACCGGGUUUGUCGGGC [Exclusion Tryptophan B GF 20]	363	276	395	314	379
UCCUAGGCUCGAAAGAGCCUAGGUAAGACUCAGGAUAUCUGGAAACAGAGAAGGGAGCUACUAGUGAUGUUAGGAAUUCCCUAAG	126	97	124	119	106
